{"source": "patent US10154957B2", "about": "“Microneedle device having a peptide therapeutic agent and an amino acid and methods of making and using the same” (3M INNOVATIVE PROPERTIES COMPANY, priority 2011, dated 2018)", "key": {"[1]": {"test": "Stability of insulin in coating on flood-coated microneedle arrays stored at 40° C./96% RH (HPLC)", "format": "physicochemical", "settings": "insulin 5 mg/mL in 0.1 N acetic acid", "experimental": "The protein or polypeptide content in the formulation coated on the microneedle arrays was determined using an Agilent 1100 HPLC system (Agilent Technologies, Wilmington, Del.) equipped with a binary pump, well-plated thermostated autosampler, thermostated column compartment, and a diode array UV detector. A Zorbax 300SB-C8 column (Agilent Technologies, Wilmington, Del.) having a 5 μm particle size and 2.1×150 mm inner diameter was used for the separations. The column was maintained at 50° C. The mobile phase consisted of two eluents. Eluent A was 0.1% TFA (trifluoroacetic acid) in water and eluent B was 0.1% TFA in acetonitrile (Spectrum Chemical, New Brunswick, N.J.). A linear gradient from 80/20 to 50/50 (A/B) was applied over 30 minutes. The flow rate was 0.4 mL/minute and the UV detection wavelength was set at 214 nm. The total run time was 34 minutes and the sample injection volume was 15 μL.\nThe pH of the sample formulation was 3.0-3.5. […] The pH of the control formulation was 3.0-3.5. Microneedle arrays were coated with either the sample or the control formulation. The coating was applied by dropwise addition of 50 μL of the formulation to the portion of the array defined by the octagon shaped pattern of microneedles. The flood coated arrays (both sample and control formulation coated) were dried in an oven at 35° C. for about 15 hours.\nAfter drying, the coated arrays were placed in a storage chamber that was maintained at 40° C. and 96% relative humidity (RH). […] At the designated time point, an array was taken from the chamber and washed with 0.1 N acetic acid (1 mL) to remove the coating from the array. […] The arrays used as reference standards were stored in a refrigerator at about 4° C. and analyzed within one day of being prepared.\nThe same procedure as described in Example 5 was used with the exception that the sample formulation contained 12 mg/mL of L-arginine hydrochloride, instead of L-histidine monohydrochloride. The pH of the sample formulation was 3.0-3.5."}, "[2]": {"test": "Stability of insulin in coating on flood-coated microneedle arrays stored at 40° C./96% RH (HPLC)", "format": "physicochemical", "settings": "Amino Acid L-Histidine (His-HCl 12 mg/mL), insulin 5 mg/mL in 0.1 N acetic acid"}}, "data": [{"substance": "Insulin", "values": [{"measurement": "Percent of Initial Insulin Content in the Coating", "setting": "[1]; Amino Acid L-Arginine (Arg-HCl 12 mg/mL), Day 1 at 40° C./96% RH", "value": 75.4, "unit": "%"}, {"measurement": "Percent of Initial Insulin Content in the Coating", "setting": "[1]; Amino Acid L-Arginine (Arg-HCl 12 mg/mL), Day 3 at 40° C./96% RH", "value": 45.9, "unit": "%"}, {"measurement": "Percent of Initial Insulin Content in the Coating", "setting": "[1]; Amino Acid L-Arginine (Arg-HCl 12 mg/mL), Day 7 at 40° C./96% RH", "value": 27.1, "unit": "%"}, {"measurement": "Percent of Initial Insulin Content in the Coating", "setting": "[1]; Amino Acid L-Arginine (Arg-HCl 12 mg/mL), Initial", "value": 100, "unit": "%"}, {"measurement": "Percent of Initial Insulin Content in the Coating", "setting": "[1]; Amino Acid None (control), Day 3 at 40° C./96% RH", "value": 0, "unit": "%"}, {"measurement": "Percent of Initial Insulin Content in the Coating", "setting": "[1]; Amino Acid None (control), Day 7 at 40° C./96% RH", "value": 0, "unit": "%"}, {"measurement": "Percent of Initial Insulin Content in the Coating", "setting": "[1]; Amino Acid None (control), Day 14 at 40° C./96% RH", "value": 0, "unit": "%"}, {"measurement": "Percent of Initial Insulin Content in the Coating", "setting": "[1]; Amino Acid None (control), Initial", "value": 100, "unit": "%"}, {"measurement": "Percent of Initial Insulin Content in the Coating", "setting": "[2]; Day 1 at 40° C./96% RH", "value": 95.3, "unit": "%"}, {"measurement": "Percent of Initial Insulin Content in the Coating", "setting": "[2]; Day 3 at 40° C./96% RH", "value": 93.5, "unit": "%"}, {"measurement": "Percent of Initial Insulin Content in the Coating", "setting": "[2]; Day 7 at 40° C./96% RH", "value": 79.2, "unit": "%"}, {"measurement": "Percent of Initial Insulin Content in the Coating", "setting": "[2]; Day 14 at 40° C./96% RH", "value": 34.9, "unit": "%"}, {"measurement": "Percent of Initial Insulin Content in the Coating", "setting": "[2]; Initial", "value": 100, "unit": "%"}]}]}
